For series [1] the following is noted: in rats; cited from earlier work. The text has this: The intrinsic qualities needed to develop a good in vivo contrast agent are high molecular selectivity so as to label only the selected target, a high affinity, so that a low dose of the tracer can be injected, quick blood elimination to reduce background noise and long-term residence in the targeted organ. […] As a peptide, MQ1 is simple to engineer. […] We exemplified this statement by generating the first PET agent specific to V2R and two highly efficient spe ...

Series [2] has as its system porcine kidney epithelial cells LLC-pk1. Description: Confocal imaging of endogenous V2R in LLC-pk1 cells. Type of series: cell-based. As to conditions: 1 µM, 30-min pre-incubation. As to the method: In cells endogenously expressing V2R, such as porcine kidney epithelial cells LLC-pk1, labeling of V2R with AFDye-488-MQ1 and Cy5.5-MQ1 (100 nM) was performed with either fresh or PFA-fixed cells (Figures 7A and B). […] In the pathophysiological context, three renal cancer cell lines (CAKI-2, ACHN and A498 [38]) known to express V2R were tested. […] The presence of V2R, at the cell membrane level, fluctuated as a function of cell density and the number of cell divisions, whatever the cell line used. […] To our knowledge, this is the first specific ligand labeling of V2R in non-permeabilized cancer cells.
Freshly dissociated CHO, LLC-PK1 or renal cancer cell lines expressing vasopressin receptors were seeded on 12-mm glass coverslips pre-coated with poly-ornithine, cultured for 48 h before incubation in DMEM, 0.2 mg/mL BSA, 25 mM HEPES, pH 7.4 for 1 h at 12°C or 30 min at 22 °C with fluorescent analogues in the absence or presence of non-fluorescent ligands (30-min pre-incubation). After 3 washes with cold PBS, the cells were finally fixed in 4% PFA overnight at 4 °C and mounted with Mowiol. The fluorescent cells were imaged using a Zeiss LSM510 Meta confocal microscope equipped with a ×63 (NA 1.4) oil immersion objective. For excitation, available laser rays were 488 and 633 nm and emission signals were collected in multitracking mode with appropriate band pass filters. […]

The conditions of series [3]: cited from earlier work. As to the method: Aprotinin and bikunin are two Kunitz peptides. Aprotinin is used clinically in acute pancreatitis, shock syndromes and hyperfibrinolytic hemorrhage. Bikunin is a protease Kunitz inhibitor that inhibits the invasiveness of tumor cells of various histological origins. Aprotinin [54] and bikunin [55] have similar T1/2α of 0.7 and 0.85 h and T1/2β of 7 and 6.4 h, respectively.

The target in series [4] is T1, Type 2 vasopressin receptor (V2R) (Rattus norvegicus, UniProt Q00788).
T1 chain: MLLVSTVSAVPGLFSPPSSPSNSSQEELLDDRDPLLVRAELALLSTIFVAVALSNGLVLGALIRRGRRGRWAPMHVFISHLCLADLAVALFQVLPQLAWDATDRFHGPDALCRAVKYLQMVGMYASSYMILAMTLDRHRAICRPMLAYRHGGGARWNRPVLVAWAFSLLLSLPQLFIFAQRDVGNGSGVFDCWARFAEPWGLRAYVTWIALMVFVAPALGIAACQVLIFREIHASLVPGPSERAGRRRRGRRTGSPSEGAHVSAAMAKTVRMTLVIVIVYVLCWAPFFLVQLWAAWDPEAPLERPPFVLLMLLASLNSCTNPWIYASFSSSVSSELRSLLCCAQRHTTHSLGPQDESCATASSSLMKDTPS
Description: [3H]AVP competition radioligand binding.

Like-named read-outs stand apart in the source and are kept apart here.

What is called Ki is the equilibrium dissociation constant of an inhibitor or competing ligand from its target. Higher therefore signals a looser hold on the target.

For the molecule `NC(=O)CC[C@@H]1NC(=O)[C@H](Cc2ccccc2)NC(=O)[C@H](Cc2ccc(O)cc2)NC(=O)[C@@H](N)CSSC[C@@H](C(=O)N2CCC[C@H]2C(=O)N[C@@H](CCCN=C(N)N)C(=O)NCC(N)=O)NC(=O)[C@H](CC(N)=O)NC1=O` [AVP, arginine-vasopressin], in series [1], the T1/2α is 0.9 min and the T1/2β is reported as 8 min.
Consider `CCOc1ccc2c(c1)C1(CCC(OCCN3CCOCC3)CC1)C(=O)N2S(=O)(=O)c1ccc(C(=O)NC(C)(C)C)cc1OC` (centres unmarked) [SR121463, reference compound], for which the “effect on labeling by AFDye-488-MQ1 and Cy5.5-MQ1” value in series [2] is listed as “inhibited the labeling”.
Consider Aprotinin [reference compound], for which, in series [3], the T1/2α was 42 min and the T1/2β was 420 min.

B1: bikunin: protease Kunitz inhibitor that inhibits the invasiveness of tumor cells (protein, UniProt P02760 206-352, looked up)
Inter-alpha-trypsin inhibitor …: AVLPQEEEGSGGGQLVTEVTKKEDSCQLGYSAGPCMGMTSRYFYNGTSMACETFQYGGCMGNGNNFVTEKECLQTCRTVAACNLPIVRGPCRAFIQLWAFDAVKGKCVLFPYGGCQGNGNKFYSEKECREYCGVPGDGDEELLRFSN
modifications: Inter-alpha-trypsin inhibitor light chain
Regarding B1, in series [3], the T1/2α is 51 min and the T1/2β was 384 min.

B2: Mambaquaretin (MQ1) (protein)
chain: RPSFCNLPVKPGPCNGFFSAFYYSQKTNKCHSFTYGGCKGNANRFSTIEKCRRTCVG
For B2, the affinity in series [4] corresponds to a Ki of 7.7 nM.
